Data on 4 molecules can be found in patent publication US20260042834A1 (HBM ALPHA THERAPEUTICS, published 2026).

Where “and” joins values, the source holds several entries; their conditions need not be identical. Equal entries are not always repeated.

The target of assay [1] is T1, biotinylated CRH (human and mouse, not fully specified; biotinylated, position not stated).
T1 construct: also called Biotin-CRH; biotin-labeled CRH
T1 peptide: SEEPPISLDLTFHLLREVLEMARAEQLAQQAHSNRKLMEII
Nature of the assay: competitive ELISA, coated 1st mAb; competitor PR302064. The protocol:
(§1) For epitope binding, a competitive ELISA was performed. Specifically, 1 μg/ml of capture antibody, 100 μl/well, was coated on a 96 well-plate at 4° C. overnight. Plates were blocked with ELISA blocking solution (containing 2% w/v BSA, 0.05% (v/v) Tween-20, pH 7.4 PBS buffer) at 37° C. for 1 hour. […] Subsequently, plates were washed and incubated with Streptavidin-Peroxidase (SIGMA, Cat: 52438-250UG) at 37° C. for 1 hour. 100 μL of 3,3′,5,5′-tetramethylbenzidine (TMB) substrate (Biopanda, Cat: TMB-S-003) was added, and the plates were incubated at room temperature for 15 minutes. 100 μL of ELISA stopping solution (Solarbio, Cat #: C1058) was added to terminate the reaction, and the optical density at 450 nm (OD450 nm) was determined by an ELISA plate reader (Molecular Devices, Spectra max 384 plus).
(In general: An ELISA detects its analyte on a solid surface through an enzyme-linked reagent.)

Assay [2] addresses T1, biotinylated CRH. Nature of the assay: competitive ELISA, coated 1st mAb; competitor PR302050. The method, then: as §1
Assay [3] deals with T1, biotinylated CRH. Nature of the assay: Octet BLI, biotinylated CRH on SA sensor. In general terms: BLI is a label-free optical method that tracks binding on a fibre tip over time.
Assay [4] deals with T1, biotinylated CRH. Nature of the assay: competitive ELISA, coated 1st mAb; competitor PR006152. The protocol: as §1
Assay [5] concerns the target T1, biotinylated CRH. Nature of the assay: competitive ELISA, coated 1st mAb; competitor PR301777. The protocol:
as §1

Assay [6] addresses T1, biotinylated CRH. Nature of the assay: competitive ELISA, coated 1st mAb; competitor PR302069. The method, then:
as §1

In assay [7] the target is T1, biotinylated CRH. Nature of the assay: competitive ELISA, coated 1st mAb; competitor PR302055. The method, then: as §1
Assay [8] has as its target T1, biotinylated CRH. Nature of the assay: competitive ELISA, coated 1st mAb; competitor PR006148. The protocol:
as §1

Assay [9] deals with T1, biotinylated CRH. Nature of the assay: competitive ELISA, coated 1st mAb; competitor PR004290. The method, then: as §1
Assay [10] deals with T1, biotinylated CRH. Nature of the assay: competitive ELISA, coated 1st mAb; competitor PR005660. The method, then: as §1
Assay [11] has as its target T1, biotinylated CRH. Nature of the assay: competitive ELISA, coated 1st mAb; competitor hIgG1. The method, then:
as §1

For another assay, the target named is T2, human UCN2 peptide (human, UniProt Q96RP3 72-109, limits assumed, not fully specified; biotin at N- or C-terminus in the ELISA).
T2 construct: also called hUCN2; hUCN2 (NT Biotin)
T2 peptide (looked up): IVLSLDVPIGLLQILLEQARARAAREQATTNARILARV
Nature of the assay: ELISA on streptavidin-captured hUCN2 (NT biotin) and hUCN2 (CT biotin), mAb at 100 nM and 10 nM; axis labelled RLU, scale 0-4. The protocol: (§2) Streptavidin (Thermo, Cat: 21125) was diluted in PBS with a concentration of 2 μg/mL. 100 μL of diluted streptavidin was added per well to ELISA microplates, and the plates were incubated overnight at 4° C. Plates were blocked with ELISA blocking solution (containing 2% w/v BSA, 0.05% (v/v) Tween-20, pH 7.4 PBS buffer) at 37° C. for 1 hour, and then incubated with either 1 μg/mL hUCN1 (NT Biotin), hUCN1 (CT Biotin), hUCN2 (NT Biotin), hUCN2 (CT Biotin), hUCN3 (NT Biotin), or hUCN3 (CT Biotin) for 1 hour at 37° C. […] 100 μl of TMB Substrate (Biopanda, Cat: TMB-S-003) was added, and the plates were incubated at room temperature for 15 minutes. 100 μL of ELISA stopping solution (Solarbio, Cat #: C1058) was then added to terminate the reaction, and the OD450 nm was determined by an ELISA plate reader (Molecular Devices, Spectra max 384 plus).

Assay [12] has as its target T3, corticotropin-releasing hormone (CRH) peptide (human and mouse, not fully specified).
T3 peptide: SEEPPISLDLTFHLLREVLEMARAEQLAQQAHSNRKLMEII
Nature of the assay: cell-based or functional assay.

The target of a further assay is T4, human UCN3 peptide (human, UniProt Q969E3 120-157, not fully specified; biotin at N- or C-terminus in the ELISA).
T4 construct: also called hUCN3; hUCN3 (NT Biotin)
T4 peptide (looked up): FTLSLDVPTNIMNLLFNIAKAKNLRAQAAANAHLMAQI
Nature of the assay: ELISA on streptavidin-captured hUCN3 (NT biotin) and hUCN3 (CT biotin), mAb at 100 nM and 10 nM; axis labelled RLU, scale 0-4. The protocol:
as §2

The target in the next assay is T5, hUCN1 (NT Biotin) (human, UniProt P55089 83-122, biotin at the N-terminus).
T5 construct: also called human UCN1 (NT biotin)
T5 peptide (looked up): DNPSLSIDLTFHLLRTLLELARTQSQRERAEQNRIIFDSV
Nature of the assay: ELISA, biotin peptide on streptavidin plate. A digest of the protocol: (§3)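 First, streptavidin (2 μg/ml in PBS) is coated onto wells overnight at 4° C. Then, following peptide capture and binding, TMB is added for 15 minutes at room temperature. Finally, the reaction is stopped and OD450 nm is measured.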

Another assay deals with T6, hUCN1 (CT Biotin) (human, UniProt P55089 83-122, biotin at the C-terminus).
T6 construct: also called human UCN1 (CT biotin)
T6 peptide (looked up): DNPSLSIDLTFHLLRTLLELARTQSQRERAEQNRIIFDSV
Nature of the assay: ELISA, biotin peptide on streptavidin plate. A digest of the protocol: as §3

A further assay deals with T7, N-Terminal CRH (human and mouse, C-terminal K-Biotin).
T7 construct: also called N-Ter-CRH (CT-Bion)
T7 peptide: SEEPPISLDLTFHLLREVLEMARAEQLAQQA
Nature of the assay: ELISA, biotin peptide on streptavidin plate. An outline of the steps: as §3

Another assay addresses T8, CRH (CT Biotin) (human and mouse, C-terminal K-Biotin).
T8 construct: also called Peptide 4 (CRH-Biotin)
T8 peptide: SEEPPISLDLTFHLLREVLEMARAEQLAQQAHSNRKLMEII
Nature of the assay: ELISA, biotin peptide on streptavidin plate. A digest of the protocol: as §3

In the next assay the target is T9, CRH (NT Biotin) (human and mouse, not fully specified; biotin at the N-terminus).
T9 peptide: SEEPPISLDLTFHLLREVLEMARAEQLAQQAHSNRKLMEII
Nature of the assay: ELISA, biotin peptide on streptavidin plate. An outline of the steps:
as §3

B1: PR302050 (antibody, human IgG1, kappa, V domains shown)
VH: EMQLVESGGGLVQPGGSLKLSCAASGFTFSNYWMNWVRQASGKGLEWVAEIRLKSNNYATHYAESVKGRFTISRDDSKSTVYLQMNSLKTEDTAVYYCTVGTLVYWGQGTLVTVSS
VL: DIVLTQSPDSLAVSLGERATINCRASQSVSTSTYNYMHWFQQKPGQPPKLLIKFASNLESGVPDRFSGSGSGTDFTLTISSLQAEDTAVYYCQHSWEIPYTFGQGTKLEIKR
notes: Humanized variant of PR301777
Take B1: the “% Inhibition” value in the assay with biotinylated CRH [1] came out at 95%; with biotinylated CRH [2] it was 94%; with biotinylated CRH [4], 96%; with biotinylated CRH [5] it was 94%; with biotinylated CRH [6], 94%; with biotinylated CRH [7], 94%. In addition, the “% Inhibition” value in the assay with biotinylated CRH [8] is 95%; with biotinylated CRH [9], 94%; with biotinylated CRH [10], 94%; in the assay with biotinylated CRH [11] it was 0%. Also, the Kd with biotinylated CRH [3] was below 0.001 nM. The koff with biotinylated CRH [3] was below 1e-07 s⁻¹. In the assay with biotinylated CRH [3], this molecule came in with a kon of 470000 M⁻¹ s⁻¹.

B2: PR302055 (antibody, human IgG1, kappa, V domains shown)
VH: EMQLVESGGGLVQPGGSLKLSCAASGFTFSNYWMNWVRQASGKGLEWVAEIRLKSNNYATHYAESVKGRFTISRDDSKSTVYLQMNSLKTEDTAVYYCTVGTLVYWGQGTLVTVSS
VL: DIQLTQSPSSLSASVGDRVTITCRASQSVSTSTYNYMHWFQQKPGKAPKLLIKFASNLESGVPSRFSGSGSGTDFTLTISSLQPEDTATYYCQHSWEIPYTFGQGTKLEIKR
notes: Humanized variant of PR301777
As to B2, the “% Inhibition” value with biotinylated CRH [1] came to 95%; in the assay with biotinylated CRH [2], 95%; with biotinylated CRH [4], 95%; with biotinylated CRH [5], 94%; with biotinylated CRH [6], 95%; with biotinylated CRH [7] it was 95%. The “% Inhibition” value worked out at 95% with biotinylated CRH [8], 94% with biotinylated CRH [9], 94% with biotinylated CRH [10] and 2% with biotinylated CRH [11].

B3: PR302064 (antibody, human IgG1, kappa, V domains shown)
VH: EMQLVESGGGLVKPGGSLRLSCAASGFTFSNYWMNWVRQAPGKGLEWVAEIRLKSNNYATHYAESVKGRFTISRDDSKSTVYLQMNSLKTEDTAVYYCTVGTLVYWGQGTLVTVSS
VL: DIVLTQSPDSLAVSLGERATINCRASQSVSTSTYNYMHWFQQKPGQPPKLLIKFASNLESGVPDRFSGSGSGTDFTLTISSLQAEDTAVYYCQHSWEIPYTFGQGTKLEIKR
notes: Humanized variant of PR301777
For the molecule B3, the “% Inhibition” value with biotinylated CRH [1] turned out to be 95%; with biotinylated CRH [2] it was 95%; with biotinylated CRH [4] it was 94%; with biotinylated CRH [5], 94%; with biotinylated CRH [6] it was 95%; with biotinylated CRH [7] it was 95%. Also, the “% Inhibition” value with biotinylated CRH [8] turned out to be 94%; with biotinylated CRH [9], 93%; in the assay with biotinylated CRH [10], 94%; in the assay with biotinylated CRH [11] it was 1%. For the same molecule, the binding result in the assay with human UCN2 peptide and with human UCN3 peptide was “no binding (tested: 100 nM)” throughout. The molecule further returned a Kd in the assay with biotinylated CRH [3] below 0.001 nM. For the same molecule, in assay [12], the “CHO-CRE-hCRHR1 0.5 nM CRH IC50” value is 0.531 nM and 0.664 nM. Also, the EC50 with hUCN1 (NT Biotin) was 0.118 nM and 0.142 nM; in the assay with hUCN1 (CT Biotin) it was 0.208 nM and 0.256 nM; in the assay with N-Terminal CRH, 0.022 nM; with CRH (CT Biotin) it was 0.026 nM and 0.023 nM; with CRH (NT Biotin), 0.03 nM.

B4: PR302069 (antibody, human IgG1, kappa, V domains shown)
VH: EMQLVESGGGLVKPGGSLRLSCAASGFTFSNYWMNWVRQAPGKGLEWVAEIRLKSNNYATHYAESVKGRFTISRDDSKSTVYLQMNSLKTEDTAVYYCTVGTLVYWGQGTLVTVSS
VL: DIQLTQSPSSLSASVGDRVTITCRASQSVSTSTYNYMHWFQQKPGKAPKLLIKFASNLESGVPSRFSGSGSGTDFTLTISSLQPEDTATYYCQHSWEIPYTFGQGTKLEIKR
notes: Humanized variant of PR301777
B4: the “% Inhibition” value with biotinylated CRH [1] is 95%; in the assay with biotinylated CRH [2], 95%; with biotinylated CRH [4], 94%; with biotinylated CRH [5], 94%; in the assay with biotinylated CRH [6] it was 95%; in the assay with biotinylated CRH [7], 95%. Further, the “% Inhibition” value was found to be 95% in the assay with biotinylated CRH [8], 93% with biotinylated CRH [9], 94% in the assay with biotinylated CRH [10] and 0% in the assay with biotinylated CRH [11].

A word on the % Inhibition: it is how much of the control response was suppressed. A high value points to a strong effect. The Kd is the equilibrium constant for the complex coming apart. Usually koff stands for a measure of how fast the partners let go of each other. The low end stands for a long-lived complex, the high end for a short-lived complex. Usually kon stands for the rate constant with which the complex forms. A higher kon goes with fast association. For orientation: EC50 means the concentration needed to bring the measured effect to its halfway point. Read a low EC50 as a more potent agent.
